Reference: doi:10.1101/829945

Target: fibrin fragment E
Assay: SPR

Substance: soluble recombinant human αVβ3-integrin (from UniProt P06756 31-1048; P05106 27-718) (receptor)
- Kd: 2 to 20 nM
